In the supplement of paper PMC10724198:
± gives the standard deviation of the averaged measurements.

system: Saccharomyces cerevisiae; test: protein stability index of tFT-peptide fusion (C-terminal peptide) (PSI (0-1 scale)); higher = more stable (slower turnover); conditions: genetic background: wild type; temperature: 30 C
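Note: PSI is a weighted mean of sequencing reads over stability bins, variants kept only with over 10 reads, mCherry proximal and sfGFP distal, peptide attached via GGGS linker.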

Sequence	protein stability index
PFGPRLTQRSRP	0.697 ± 0.039
DILCRILLRPKG	0.63 ± 0.031
GGWPLSPSFGWG	0.571
SPPFLPPLITFP	0.681 ± 0.023
VFDCLCGLRPGF	0.632 ± 0.026
SWTGDGWMWRRR	0.658 ± 0.019
AGAGLGGVLGWW	0.671 ± 0.02
TAGAYSLSTGNH	0.651 ± 0.024
NYRGEKYDKREH	0.569 ± 0.11
RGAGRTHCLRAP	0.6613 ± 0.0055
SSPLWCFRLVFF	0.583 ± 0.015
DEVRDTSGGTWA	0.642 ± 0.02
PPPSFPDWRYRW	0.755 ± 0.017
VFPPLSRLLPGP	0.699 ± 0.1
RFGWRRGRVGSS	0.734 ± 0.038
GALGCHPGLPSP	0.714 ± 0.025
ALIFPLPASSTF	0.609 ± 0.038
PSLDCMSIEETT	0.679 ± 0.017
YTMGGSLSVSLD	0.817 ± 0.16
IKIIKNDQKRIK	0.709 ± 0.061
TTVAIPSINRYS	0.671 ± 0.051
PPCAPFSPPALP	0.659 ± 0.05
HLVYRRGLEVTF	0.615 ± 0.061
RILPSPVSAGGF	0.62 ± 0.026
LWFVGVAGFSLV	0.5715 ± 0.004
CVGFCLGKCTMS	0.732 ± 0.014

Sequence	protein stability index
RCWEWADWPRDG	0.764 ± 0.029
GGCCLWVGFQGG	0.703 ± 0.012
PPPPLAPAPPAF	0.744 ± 0.016
LCVRFFGVKWAF	0.594 ± 0.0095
PPSAPPPSYHPP	0.607 ± 0.045
EKKHNKKEVIKK	0.699 ± 0.009
VPPPALPPCPAF	0.723 ± 0.037
FLRISPPPPSPP	0.676 ± 0.077
TSPTPPPTPCRS	0.6927 ± 0.0067
CFVDHCPIAHIY	0.608 ± 0.022
LVILWDVLSVVP	0.612 ± 0.049
GGGGGWAGENTR	0.715 ± 0.075
FLLYSSSAIPEH	0.759 ± 0.065
GIKQEMKYQVGK	0.665 ± 0.07
RNGFGSWFRWKM	0.7014 ± 0.0069
SGVAYAVYLVFR	0.472 ± 0.047
NKKNKKRIGRNT	0.736 ± 0.034
VPPALPRSPGPP	0.72 ± 0.069
LGVGSVGAKCGS	0.639 ± 0.0071
CITKERVMVKFV	0.538 ± 0.012
PPPPRTLASPSY	0.679 ± 0.026
KTNNYPDNNPPG	0.611 ± 0.016
WGTDVGAGCVAR	0.741 ± 0.027
HRCRVGGSRFEK	0.671 ± 0.036
SSVRIGRNLYVW	0.754 ± 0.13
NGCCLVHAETGP	0.676 ± 0.032

Sequence	protein stability index
PPPHPLPPLPAT	0.744 ± 0.043
ATTVAIVFCRPA	0.6165 ± 0.0039
GTGGRMIRWGLG	0.667 ± 0.061
FHFLCLVGSFRG	0.528 ± 0.037
GRGGLGWWEWDR	0.7462 ± 0.0067
RGRAVGVGGGGV	0.626 ± 0.027
GWGHYFGLIREQ	0.698 ± 0.045
PPSPSPLPPRPL	0.717 ± 0.04
EGHSPVQNVIEQ	0.698 ± 0.013
GRDKGNLQSLRR	0.732 ± 0.014
PLPPPRPPPSPP	0.603 ± 0.071
VGIQQSVVVRLE	0.6685 ± 0.0034
AWGELGSGVFGL	0.681 ± 0.032
LLGRSPSPTRPT	0.65732 ± 0.00035
KACVKRVYCILE	0.58 ± 0.015
GVFGFGARLCIG	0.6782 ± 0.0043
YGAGLSHLFRIS	0.636 ± 0.041
DGPGFNVCLRCK	0.708 ± 0.017
CFLPLFFFRFVE	0.609 ± 0.027
RFGRGAGGGLGG	0.6763 ± 0.0013
IKTKKKKENKRR	0.723 ± 0.008
NEIRNKETETVM	0.665 ± 0.023
LSLPPLRPPYPP	0.678 ± 0.091
PPLPPLPAPSPV	0.652 ± 0.021
LYRFVSVLSDVH	0.577 ± 0.012
VSGGGEWRDAYG	0.677 ± 0.04

Sequence	protein stability index
GGGSGGVVGGIS	0.674 ± 0.018
FLYDPVMLGLAC	0.469 ± 0.053
KKKKKRITKIKN	0.7089 ± 0.0018
HPHAIDPKIESI	0.693 ± 0.035
WGGTAGWLHIGV	0.747 ± 0.076
LPPPSPPSSAPP	0.734 ± 0.049
VSGDLRRWRNSE	0.673 ± 0.043
KSVSVDGYNKED	0.646 ± 0.01
GWWGGEGVEGEP	0.6846 ± 0.0015
KYINSASLIVYY	0.693 ± 0.06
CQVVALYCFSLL	0.62 ± 0.068
HSPHLLSFFSPM	0.71 ± 0.076
EGRPEERETTGH	0.587 ± 0.057
ERARSRGGGGCV	0.632 ± 0.046
TKSWSLNGTYLL	0.703 ± 0.034
HRLGNRGGRTLG	0.6512 ± 0.0057
CRNSTKFAVLRE	0.654 ± 0.012
CRATYVGTGGRG	0.656 ± 0.016
SLPPPSSPPPPL	0.692 ± 0.089
LHAPFPHPPPPP	0.6713 ± 0.005
WSWGGLHRELAA	0.744 ± 0.0099
FRFVFFFRSGLV	0.595 ± 0.063
GSVLPPPAPPPL	0.674 ± 0.021
